Results as given in US20240182988.

Biological target: TtCsm complex (Thermus thermophilus) (UniProt Q53W19+Q53WF6+Q53WF5+Q53WF4+Q53W18)
Test: cleavage_in_vitro

How did the activity turn out when “crRNA targeting SARS-CoV-2 N gene (N1) ; SARS-CoV-2 N1 target RNA” was run?
The activity was over 95 % cleaved.
